Experimental data taken from doi:10.1101/2023.01.10.523203 (bioRxiv, 2023).
Several values for one entry are separate records, joined by “and”; a condition that tells them apart may be missing. Equal entries are not always repeated.

Target: the molecule itself
Assay: SEC

B1: LZTR1^L580P recombinant protein (LZTR1-Myc-6xHis with p.L580P) (natural protein)
chain: MAGPGSTGGQIGAAALAGGARSKVAPSVDFDHSCSDSVEYLTLNFGPFETVHRWRRLPPCDEFVGARRSKHTVVAYKDAIYVFGGDNGKTMLNDLLRFDVKDCSWCRAFTTGTPPAPRYHHSAVVYGSSMFVFGGYTGDIYSNSNLKNKNDLFEYKFATGQWTEWKIEGRLPVARSAHGATVYSDKLWIFAGYDGNARLNDMWTIGLQDRELTCWEEVAQSGEIPPSCCNFPVAVCRDKMFVFSGQSGAKITNNLFQFEFKDKTWTRIPTEHLLRGSPPPPQRRYGHTMVAFDRHLYVFGGAADNTLPNELHCYDVDFQTWEVVQPSSDSEVGGAEVPERACASEEVPTLTYEERVGFKKSRDVFGLDFGTTSAKQPTQPASELPSGRLFHAAAVISDAMYIFGGTVDNNIRSGEMYRFQFSCYPKCTLHEDYGRLWESRQFCDVEFVLGEKEECVQGHVAIVTARSRWLRRKITQARERLAQKLEQEAAPVPREAPGVAAGGARPPLLHVAIREAEARPFEVLMQFLYTDKIKYPRKGHVEDVLLIMDVYKLALSFQLCRLEQLCRQYIEASVDLQNVPVVCESAARLQLSQLKEHCLNFVVKESHFNQVIMMKEFERLSSPLIVEIVRRKQQPPPRTPLDQPVDIGTSLIQDMKAYLEGAGAEFCDITLLLDGHPRPAHKAILAARSSYFEAMFRSFMPEDGQVNISIGEMVPSRQAFESMLRYIYYGEVNMPPEDSLYLFAAPYYYGFYNNRLQAYCKQNLEMNVTVQNVLQILEAADKTQALDMKRHCLHIIVHQFTKVSKLPTLRSLSQQLLLDIIDSLASHISDKQCAELGADI
- stoichiometry N: 6 and 4
